# Measured values published in patent US20240092935A1 (BETH ISRAEL DEACONESS MEDICAL CENTER, published 2024).
# GalNAc = N-acetylgalactosamine
# T1: MUC5AC glycopeptide H2N-GTTPSPVPT*TSTTSAP-OH (chart ID 10)
# T1 peptide: H-GTTPSPVPT(GalNAc)TSTTSAP-OH
# T2: EA2 glycopeptide Ac-PTTDSTT*PAPTTK-NH2 (chart ID 11)
# T2 peptide: Ac-PTTDSTT(GalNAc)PAPTTK-NH2
# T3: EA2-R peptide Ac-PTTDSTTPAPTTK-NH2 (chart ID 12)
# T3 peptide: Ac-PTTDSTTPAPTTK-NH2
# T4: a-Dystroglycan glycopeptide Ac-PPT*T*T*T*KKP-HN2 (chart ID 13)
# T4 peptide: Ac-PPT(GalNAc)T(GalNAc)T(GalNAc)T(GalNAc)KKP-NH2
# T5: MUC1-1 glycopeptide H2N-TSAPDT*RDAP-NH2 (chart ID 14)
# T5 peptide: H-TSAPDT(GalNAc)RDAP-NH2
# T6: MUC1-1R peptide H2N-TSAPDTRDAP-NH2 (chart ID 15)
# T6 peptide: H-TSAPDTRDAP-NH2
# T7: Peptide-4 H2N-KTTT-CONH2 (chart ID 21)
# T7 peptide: H-KTTT-NH2
# T8: Peptide-5 H2N-KTTTG-CONH2 (chart ID 22)
# T8 peptide: H-KTTTG-NH2
# T9: a-Dystroglycan peptide Ac-PPTTTTKKP-NH2 (chart ID 9)
# T9 peptide: Ac-PPTTTTKKP-NH2
# T10: A-MUC2 glycopeptide Ac-PT*TTPLK-NH2 (chart ID 1)
# T10 peptide: Ac-PT(GalNAc)TTPLK-NH2
# T11: B-MUC2 glycopeptide Ac-PTT*TPLK-NH2 (chart ID 2)
# T11 peptide: Ac-PTT(GalNAc)TPLK-NH2
# T12: C-MUC2 glycopeptide Ac-PTTT*PLK-NH2 (chart ID 3)
# T12 peptide: Ac-PTTT(GalNAc)PLK-NH2
# T13: D-MUC2 glycopeptide Ac-PT*T*TPLK-NH2 (chart ID 4)
# T13 peptide: Ac-PT(GalNAc)T(GalNAc)TPLK-NH2
# T14: F-MUC2 glycopeptide Ac-PTT*T*PLK-NH2 (chart ID 6)
# T14 construct: also called double-Tn-MUC2; bar label T*T*
# T14 peptide: Ac-PTT(GalNAc)T(GalNAc)PLK-NH2
# B1: BaGs6, murine IgM anti-Tn monoclonal antibody from mouse ascites (antibody, V domains shown)
# VH: DTMLQQSDAELVKPGASVKMSCKASGYTFTDHAIHWVKQKPEQGLEWIGYVSPGNGDIKYNEKFKGKATLSADKSSSTAYMQLNSLTSEDSAVYFCKRSYGSFDYWGQGTTLTVSS
# VL: QIVLTQSPAIMSSSPGEKVALSCSASSSVSYVYWYQQKPGSSPKPWIYRTSNLASGVPARFSGSGSGTSYSLTISSMEAEDAATYYCQQYHSYPFTFGSGTKLEIKR
# notes: Natural mouse IgM used as ascites fluid; also called Ca3638; anti-Tn ascites
# B2: ReBaGs6, recombinant murine IgM anti-Tn antibody (antibody)
# heavy: DTMLQQSDAELVKPGASVKMSCKASGYTFTDHAIHWVKQKPEQGLEWIGYVSPGNGDIKYNEKFKGKATLSADKSSSTAYMQLNSLTSEDSAVYFCKRSYGSFDYWGQGTTLTVSSESQSFPNVFPLVSCESPLSDKNLVAMGCLARDFLPSTISFTWNYQNNTEVIQGIRTFPTLRTGGKYLATSQVLLSPKSILEGSDEYLVCKIHYGGKNRDLHVPIPAVAEMNPNVNVFVPPRDGFSGPAPRKSKLICEATNFTPKPITVSWLKDGKLVESGFTTDPVTIENKGSTPQTYKVISTLTISEIDWLNLNVYTCRVDHRGLTFLKNVSSTCAASPSTDILTFTIPPSFADIFLSKSANLTCLVSNLATYETLNISWASQSGEPLETKIKIMESHPNGTFSAKGVASVCVEDWNNRKEFVCTVTHRDLPSPQKKFISKPNEVHKHPPAVYLLPPAREQLNLRESATVTCLVKGFSPADISVQWLQRGQLLPQEKYVTSAPMPEPGAPGFYFTHSILTVTEEEWNSGETYTCVVGHEALPHLVTERTVDKSTGKPTLYNVSLIMSDTGGTCY
# light: QIVLTQSPAIMSSSPGEKVALSCSASSSVSYVYWYQQKPGSSPKPWIYRTSNLASGVPARFSGSGSGTSYSLTISSMEAEDAATYYCQQYHSYPFTFGSGTKLEIKRADAAPTVSIFPPSSEQLTSGGASVVCFLNNFYPKDINVKWKIDGSERQNGVLNSWTDQDSKDSTYSMSSTLTLTKDEYERHNSYTCEATHKTSTSPIVKSFNRNEC
# notes: Mouse IgM (mu heavy chain, kappa light chain); also called ReGs6; mIgM
# B3: Remab6, recombinant human chimeric IgG1 anti-Tn antibody (antibody)
# heavy: not shown
# light: QIVLTQSPAIMSSSPGEKVALSCSASSSVSYVYWYQQKPGSSPKPWIYRTSNLASGVPARFSGSGSGTSYSLTISSMEAEDAATYYCQQYHSYPFTFGSGTKLEIKRTVAAPSVFIFPPSDEQLKSGTASVVCLLNNFYPREAKVQWKVDNALQSGNSQESVTEQDSKDSTYSLSSTLTLSKADYEKHKVYACEVTHQGLSSPVTKSFNRGEC
# notes: Mouse variable regions engineered from BaGs6 with human IgG1 and kappa constant regions; expressed in HEK293 Freestyle cells; also called Remab6-WT; hIgG1
# B4: PNA (other)
# chain: AETVSFNFNSFSEGNPAINFQGDVTVLSNGNIQLTNLNKVNSVGRVLYAMPVRIWSSATGNVASFLTSFSFEMKDIKDYDPADGIIFFIAPEDTQIPAGSIGGGTLGVSDTKGAGHFVGVEFDTYSNSEYNDPPTDHVGIDVNSVDSVKTVPWNSVSGAVVKVTVIYDSSTKTLSVAVTNDNGDITTIAQVVDLKAKLPERVKFGFSASGSLGGRQIHLIRSWSFTSTLITTTRRSIDNNEKKIMNMASA
# modifications: Biotinylated at unspecified positions. The native lectin is a homotetramer; one subunit is given.
# notes: also called biotinylated PNA; Peanut agglutinin
# Columns and labels:
# [1] = target: T1, MUC5AC glycopeptide …; experiment: Tn glycopeptide microarray, Alexa Fluor 488 goat anti-mouse IgM
# Method: (§1) The Tn glycopeptide microarray was prepared as previously described (25). The Consortium for Functional Glycomics (CFG) glycan microarray version 5.0 was used (www.functionalglycomics.org) (26). […] Slides were washed four times with TSM wash buffer 1 (20 mM Tris-HCl, pH 7.4, 150 mM NaCl, 2 mM CaCl₂), 2 mM MgCl2 and 0.05% Tween-20), and washed four times with TSM wash buffer 2 (20 mM Tris-HCl, pH 7.4, 150 mM NaCl, 2 mM CaCl2) and 2 mM MgCl2). Alexa Fluor® 488-labeled goat anti-human IgG or goat anti-mouse IgM secondary (diluted to 5 μg/ml) were used for detection. After washing as above, slides were washed once in water and dried before being read on a Genepix® 4300A microarray scanner (Molecular Devices). Images were analyzed with quantitation software (GenePix® Pro Microarray Analysis Software Ver. 7, Molecular Devices).
# [2] = target: T2, EA2 glycopeptide Ac-PTTDSTT*PAPTTK-NH2 …; experiment: as above
# Method: as §1
# [3] = target: T3, EA2-R peptide Ac-PTTDSTTPAPTTK-NH2 …; experiment: as above
# Method: as §1
# [4] = target: T4, a-Dystroglycan glycopeptide …; experiment: as above
# Method: as §1
# [5] = target: T5, MUC1-1 glycopeptide H2N-TSAPDT*RDAP-NH2 …; experiment: as above
# Method: as §1
# [6] = target: T6, MUC1-1R peptide H2N-TSAPDTRDAP-NH2 …; experiment: as above
# Method: as §1
# [7] = target: T7, Peptide-4 H2N-KTTT-CONH2 (chart ID 21); experiment: as above
# Method: as §1
# [8] = target: T8, Peptide-5 H2N-KTTTG-CONH2 (chart ID 22); experiment: as above
# Method: as §1
# [9] = target: T9, a-Dystroglycan peptide Ac-PPTTTTKKP-NH2 …; experiment: as above
# Method: as §1
# [10] = target: T15, Asialo-BSM (desialylated bovine submaxillary mucin) (bovine); experiment: plate binding assay, Asialo-BSM coated on 96-well plate, serial dilution of antibody, fluorescent secondary antibody
# T15 construct: also called desialylated BSM; Asialo-BSM beads
# [11] = target: T1, MUC5AC glycopeptide …; experiment: Tn glycopeptide microarray, Alexa Fluor 488 goat anti-human IgG
# Method: as §1
# [12] = target: T2, EA2 glycopeptide Ac-PTTDSTT*PAPTTK-NH2 …; experiment: as above
# Method: as §1
# [13] = target: T3, EA2-R peptide Ac-PTTDSTTPAPTTK-NH2 …; experiment: as above
# Method: as §1
# [14] = target: T4, a-Dystroglycan glycopeptide …; experiment: as above
# Method: as §1
# [15] = target: T5, MUC1-1 glycopeptide H2N-TSAPDT*RDAP-NH2 …; experiment: as above
# Method: as §1
# [16] = target: T6, MUC1-1R peptide H2N-TSAPDTRDAP-NH2 …; experiment: as above
# Method: as §1
# [17] = target: T7, Peptide-4 H2N-KTTT-CONH2 (chart ID 21); experiment: as above
# Method: as §1
# [18] = target: T8, Peptide-5 H2N-KTTTG-CONH2 (chart ID 22); experiment: as above
# Method: as §1
# [19] = target: T9, a-Dystroglycan peptide Ac-PPTTTTKKP-NH2 …; experiment: as above
# Method: as §1
# [20] = target: T10, A-MUC2 glycopeptide Ac-PT*TTPLK-NH2 …; experiment: Tn glycopeptide microarray probed with biotinylated PNA and Alexa488-streptavidin
# [21] = target: T11, B-MUC2 glycopeptide Ac-PTT*TPLK-NH2 …; experiment: as above
# [22] = target: T12, C-MUC2 glycopeptide Ac-PTTT*PLK-NH2 …; experiment: as above
# [23] = target: T13, D-MUC2 glycopeptide Ac-PT*T*TPLK-NH2 …; experiment: as above
# [24] = target: T14, F-MUC2 glycopeptide Ac-PTT*T*PLK-NH2 …; experiment: as above
binder,measurement,setting,value
B1,binding result,[1],no binding (tested: 1:200 dilution (text paragraph 261))
same,binding result,[2],no binding (tested: 1:200 dilution (text paragraph 261))
same,binding result,[3],no binding (tested: 1:200 dilution (text paragraph 261))
same,binding result,[4],no binding (tested: 1:200 dilution (text paragraph 261))
same,binding result,[5],no binding (tested: 1:200 dilution (text paragraph 261))
same,binding result,[6],no binding (tested: 1:200 dilution (text paragraph 261))
same,binding result,[7],no binding (tested: 1:200 dilution (text paragraph 261))
same,binding result,[8],no binding (tested: 1:200 dilution (text paragraph 261))
B2,binding result,[4],no binding (tested: 20 or 2 µg/ml (text paragraph 261))
same,binding result,[5],no binding (tested: 20 or 2 µg/ml (text paragraph 261))
same,binding result,[6],no binding (tested: 20 or 2 µg/ml (text paragraph 261))
same,binding result,[7],no binding (tested: 20 or 2 µg/ml (text paragraph 261))
same,binding result,[8],no binding (tested: 20 or 2 µg/ml (text paragraph 261))
same,binding result,[9],no binding (tested: 20 or 2 µg/ml (text paragraph 261))
same,Kd,[10],54.3 nM
B3,binding result,[11],no binding (tested: 5 µg/ml (text paragraph 261))
same,binding result,[12],no binding (tested: 5 µg/ml (text paragraph 261))
same,binding result,[13],no binding (tested: 5 µg/ml (text paragraph 261))
same,binding result,[14],no binding (tested: 5 µg/ml (text paragraph 261))
same,binding result,[15],no binding (tested: 5 µg/ml (text paragraph 261))
same,binding result,[16],no binding (tested: 5 µg/ml (text paragraph 261))
same,binding result,[17],no binding (tested: 5 µg/ml (text paragraph 261))
same,binding result,[18],no binding (tested: 5 µg/ml (text paragraph 261))
same,binding result,[19],no binding (tested: 5 µg/ml (text paragraph 261))
same,Kd,[10],829 nM
B4,binding result,[20],no binding
same,binding result,[21],no binding
same,binding result,[22],no binding
same,binding result,[23],no binding
same,binding result,[24],no binding
